For this data set, the system named is MS2 coat protein. Briefly: apparent KD of MS2 coat protein; higher = weaker reporter binding. To be noted: Eterna round: R107. The method, boiled down:
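Apparent KD is reported per design as the median of normalised binding-curve fits across its clusters. The RNA switches were made by on-chip transcription from Illumina sequencing clusters. SNAP-549-labelled MS2 coat protein was then added in twofold steps (0.7 or 1.5 nM to 3 µM; 0.8–1.5 h to 10–20 min per step) in 100 mM Tris-HCl pH 7.5, 80 mM KCl, 4 mM MgCl2, without or with constant ligand.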

[1] abbreviates: input ligand: theophylline 20 uM.
Setting [2] is: input ligand: tryptophan 2.4 mM.
[3] abbreviates: input ligand: theophylline 2 mM.

Take “AGUACUCGAACGGAUACCAGCCGGACAUGAGGAUCACCCAUGUCCUACCUAUGUUCGGUUGGCCCUUGGCAGCCGUUCGUGUACA [Omei Theo B SS A v6]”: the “apparent KD of MS2 coat protein” value (input ligand: arginine 13.2 mM) worked out at 171 nM, the “apparent KD of MS2 coat protein” value under setting [1] was determined as 707 nM and the “apparent KD of MS2 coat protein” value under setting [2] was 430 nM.

On to “AGUAGUUGACAAAAGUCAGCUACAAUUGAAGGAGCGGGUGGGUGCCCAGGUAGGUCGCAAUAACAUGAGGAUCACCCAUGUAUAA [ArgAS 2 #BothOrNeither #OpenEnded]”, for which the “apparent KD of MS2 coat protein” value runs as follows: (input ligand: arginine 13.2 mM) 20 nM; (input ligand: none) 21 nM; under setting [1], 22.9 nM; under setting [3], 27.2 nM; under setting [2], 17.9 nM.

As for “AGUAUCAGUGGAAGGAGCGUCGCGACUGCCACAUGAGGAUCACCCAUGUCGCCUUGAGCGCGACAGGUAGGUCGCCACGGUAGGC [SS-ArgB2]”, the “apparent KD of MS2 coat protein” value reads like this: (input ligand: arginine 13.2 mM) 29.1 nM; (input ligand: none) 301 nM; under setting [1], 213 nM; under setting [3], 499 nM; under setting [2], 289 nM.

Consider “AGUAUUGGAAACAGUACUAGUGAUCCGGUCCGAGGACCGGUACGGCCGCCACUCGAAUUAAAUAAACAUGAGGAUCACCCAUGUA [Ex Tryptophan A 15]”, for which the “apparent KD of MS2 coat protein” value reads like this: (input ligand: arginine 13.2 mM) 18.1 nM; under setting [1], 18.7 nM; under setting [3], 20.6 nM.

On to “AGUCUUAUAGGAAGGAGCGCAUACUUCACAUGAGGAUCACCCAUGUCAAGACGUGAGUCAGUGCAGGUAGGUCGCCUAACUAAGA [Same State - Arginine B (Freestyle 13)]”, for which the “apparent KD of MS2 coat protein” value came to 27.2 nM (input ligand: arginine 13.2 mM); 29.2 nM (input ligand: none); 29.7 nM under setting [1]; 32.1 nM under setting [3]; 27.7 nM under setting [2].

On to “AGUCUUGAACGAAGGAGCGACGUACAUGAGGAUCACCCAUGUGUGGAGCGAAAGCUCCAACGUCAGGUAGGUCGCGUUCGAGACA [Omei Arginine B SS A v2]”, for which the “apparent KD of MS2 coat protein” value runs as follows: (input ligand: arginine 13.2 mM) 14.9 nM; (input ligand: none) 12.8 nM; under setting [1], 18 nM; under setting [3], 14.9 nM; under setting [2], 13.9 nM.

With “AGUGGUGCAACUGAUACCAGAUUUAUACGAGACAUGAGGAUCACCCAUGUCGAAAGACAAAUCCCUUGGCAGCAGACACGAUCCC [theeternabot_sameState_MS2_Theo_B_25]”, the “apparent KD of MS2 coat protein” value amounted to 9.88 nM (input ligand: arginine 13.2 mM), 10.4 nM under setting [1] and 9.65 nM under setting [2].

With “AGUGUAUCCAUCGAUACCAGCCACCACCGAUAGACCACAUGAGGAUCACCCAUGUUGGGUGGCCCUUGGCAGCGGUGGCUGUGUA [Same State - Theophylline B Attempt #2 (HarryS)]”, the “apparent KD of MS2 coat protein” value (input ligand: arginine 13.2 mM) is 57.5 nM, the “apparent KD of MS2 coat protein” value under setting [1] amounted to 512 nM and the “apparent KD of MS2 coat protein” value under setting [2] is 546 nM.

For the sequence “AGUGUUAUAACUGAUACCAGACUCUCAUGUUUACAUGAGGAUCACCCAUGUUAUUUCUUUGUCCCUUGGCAGCAGAAUUAACACA [JR_SSTheophyB_Sub010]”, the “apparent KD of MS2 coat protein” value runs as follows: (input ligand: arginine 13.2 mM) 152 nM; under setting [1], 175 nM; under setting [2], 215 nM.

As to “AGUUAUUCGAACAUGGUUGACGAGUGGCAACGAGGACCGGUACGGCCGCCACUCGAAUAAACAUGAGGAUCACCCAUGUACAAAU [T''-M'-T'-T-MS2 - Design 10]”, the “apparent KD of MS2 coat protein” value by setting is: (input ligand: arginine 13.2 mM) 72.1 nM; under setting [1], 264 nM; under setting [3], 442 nM.

As for “AUAAAUAAGGCGGCCGCCACUAAUAUAUUAAUAUUUUAUAUCCGACAUGAGGAUCACCCAUGUGGUAGGACCGGGCCAAUAAUUA [Same State - Tryptophan B]”, the “apparent KD of MS2 coat protein” value by setting is: (input ligand: arginine 13.2 mM) 20.4 nM; under setting [1], 43.4 nM; under setting [3], 25 nM.

On to “AUAAAUAAUAAAUAAAAUAAAGUGGGUGAACGAGGACCGGUACGGCCGCCACUCGGACAUGAGGAUCACCCAUGUCCAUGUGAAA [AstrosExyTry#1]”, for which the “apparent KD of MS2 coat protein” value worked out at 13.1 nM (input ligand: arginine 13.2 mM), 22.4 nM under setting [1] and 19.2 nM under setting [3].

In the case of “AUAACAUGAGGAUCACCCAUGUAAGCUGAAGGAGCGCUGGAAACAGCAGGUAGGUCGCAGCAUGUUUCCACAUGGGUAGGAAACU [(M1)-(M2)-(Arg1)-(Arg2)-(A)'-(M)'-(A)''_Design8]”, the “apparent KD of MS2 coat protein” value reads like this: (input ligand: arginine 13.2 mM) 42.4 nM; (input ligand: none) 80 nM; under setting [1], 86.2 nM; under setting [3], 123 nM; under setting [2], 49.5 nM.

Regarding “AUAACAUGAGGAUCACCCAUGUAAGCUGAAGGAGCGGACGAAAGUCCAGGUAGGUCGCAGCGUUCCUUCACCUCAUGAGAAGGAG [SSArg-A #30 with U all better]”, the “apparent KD of MS2 coat protein” value by setting is: (input ligand: arginine 13.2 mM) 17.8 nM; (input ligand: none) 22.5 nM; under setting [1], 37.5 nM; under setting [3], 24 nM; under setting [2], 21.6 nM.

Regarding “AUAACAUGAGGAUCACCCAUGUAAGGUGAUACCAGACGAAGUAAAGUCCCUUGGCAGCACAAGCAUAGUUGCGAAUAUUGAUAGA [JR_SSTheophyA_Sub005]”, the “apparent KD of MS2 coat protein” value runs as follows: (input ligand: arginine 13.2 mM) 264 nM; under setting [1], 532 nM; under setting [2], 632 nM.

Consider “AUAACAUGAGGAUCACCCAUGUUGAGUGAUACCAGACUAUGUAAUGUCCCUUGGCAGCACAAGUAAAGUUAUAAAUAAUGAUAGA [#12 SameState-TheophyllineA]”, for which the “apparent KD of MS2 coat protein” value was 48.2 nM (input ligand: arginine 13.2 mM), 55.1 nM under setting [1] and 47.2 nM under setting [2].

Consider “AUAACUGUCAAGGAAGGUGAUCCAGCAGAUACCAGCUAGGAAACUAGCCCUUGGCAGCUGCAACAUGAGGAUCACCCAUGUAAUA [(T)'-(M)'-(T1)-(T2)-(M1)-(M2)_Design9]”, for which the “apparent KD of MS2 coat protein” value was found to be 61 nM (input ligand: arginine 13.2 mM), 135 nM under setting [1] and 59.3 nM under setting [2].

With “AUAAGUAAUGUCUCGUGUAUUAUUACAGAUACCAGACUAUCCUAUGUCCCUUGGCAGCUGGAUUACAUGAGGAUCACCCAUGUUG [#10 Exclusion-TheophyllineA]”, the “apparent KD of MS2 coat protein” value runs as follows: (input ligand: arginine 13.2 mM) 21.5 nM; under setting [1], 25.3 nM; under setting [2], 22 nM.

(Values after the supplement of paper PMC9170038.)
